Measurements reported in paper PMC12292926, “PELP1 coordinates the modular assembly and enzymatic activity of the rixosome complex” (Science Advances, 2025).
One block for each molecule: values may come before it.

Columns and labels:
[1] = molecular target: recombinant human histone octamer (human) (UniProt P0C0S8); experiment: SEC; histone chaperone assay: MBP-PELP1 variant and histone octamer mixed at 1:1 or 2:1 in >1.2 M NaCl, dialysed stepwise to 0.3 M NaCl, 10 mM Hepes pH 7.5, 4°C; S200 10/300 gel filtration in the low-salt buffer; SDS-PAGE of fractions
[2] = molecular target: T1, MBP-SENP3^(311–574 C532S), fixed-arm MBP fusion of the SENP3 catalytic domain (human, UniProt Q9H4L4 311-574, C532S); experiment: crystal structure; MBP-SENP3 (311-574, C532S) with 1.5x molar excess of sPELP1 peptide; sitting drop, 0.085 to 0.1 M Hepes pH 7.5, 17 to 20% PEG8000, 4°C; 2.93 Å; conditions: both partners purified
T1 construct: human SENP3 catalytic domain with the three-helix bundle, Glu311-Val574, catalytic-dead C532S; In the PDB model MBP residues are labeled 1 to 370 and SENP3 residues 1311 to 1574; also called MBP(wt)-SENP3; pMALX(wt)-SENP3 (Glu311-Val574/C532S); source: E. coli Rosetta2 (DE3), purified (amylose resin, Superdex200 SEC); not shown: MBP (fixed-arm fusion, pMALX(wt)), N-terminal, kept

[3] = molecular target: T2, N-terminal 6× His-tagged human SENP3 protease domain (302 to 574aa) (human, UniProt Q9H4L4 302-574); experiment: SEC; purified components mixed at equimolar amounts (20 to 80 μM), 4°C for at least 30 min; S200 10/300 analytical column; SDS-PAGE of fractions; conditions: both partners purified
T2 construct: E. coli codon-optimized gene (Genscript) in pET11a; source: E. coli, purified (His60 Ni resin, S200 gel filtration)

[4] = molecular target: T3, exogenous rixosome subcomplex (PELP1, TEX10, WDR18, and SENP3) purified by GFP-TEX10 wild type (human, UniProt Q9NXF1 1-929; Q8IZL8 1-1130; Q9BV38 1-432; Q9H4L4 1-574); experiment: pull-down; GFP-TEX10 rixosome subcomplexes affinity purified from HEK293FT and kept on anti-GFP Sepharose (ATP and low-salt washes); incubated with recombinant ncPRC1.4 (0.177 mg/ml) in 0.2 ml low-salt buffer (50 mM Hepes pH 7.5, 200 mM NaCl, 5 mM MgCl2, 10% glycerol), 1 hour, 4°C; Western blot; conditions: both partners purified
T3 construct: human TEX10, wild type, bait of the subcomplex; human PELP1, exogenous; human WDR18, exogenous; human SENP3, exogenous; copy numbers in this preparation are not measured; also called immobilized TEX10 rixosome subcomplexes; TEX10 subcomplexes; not shown: GFP, N-terminal, kept; copies: + + +
T3 sequence (Q9NXF1 whole entry, chain 1 of 4): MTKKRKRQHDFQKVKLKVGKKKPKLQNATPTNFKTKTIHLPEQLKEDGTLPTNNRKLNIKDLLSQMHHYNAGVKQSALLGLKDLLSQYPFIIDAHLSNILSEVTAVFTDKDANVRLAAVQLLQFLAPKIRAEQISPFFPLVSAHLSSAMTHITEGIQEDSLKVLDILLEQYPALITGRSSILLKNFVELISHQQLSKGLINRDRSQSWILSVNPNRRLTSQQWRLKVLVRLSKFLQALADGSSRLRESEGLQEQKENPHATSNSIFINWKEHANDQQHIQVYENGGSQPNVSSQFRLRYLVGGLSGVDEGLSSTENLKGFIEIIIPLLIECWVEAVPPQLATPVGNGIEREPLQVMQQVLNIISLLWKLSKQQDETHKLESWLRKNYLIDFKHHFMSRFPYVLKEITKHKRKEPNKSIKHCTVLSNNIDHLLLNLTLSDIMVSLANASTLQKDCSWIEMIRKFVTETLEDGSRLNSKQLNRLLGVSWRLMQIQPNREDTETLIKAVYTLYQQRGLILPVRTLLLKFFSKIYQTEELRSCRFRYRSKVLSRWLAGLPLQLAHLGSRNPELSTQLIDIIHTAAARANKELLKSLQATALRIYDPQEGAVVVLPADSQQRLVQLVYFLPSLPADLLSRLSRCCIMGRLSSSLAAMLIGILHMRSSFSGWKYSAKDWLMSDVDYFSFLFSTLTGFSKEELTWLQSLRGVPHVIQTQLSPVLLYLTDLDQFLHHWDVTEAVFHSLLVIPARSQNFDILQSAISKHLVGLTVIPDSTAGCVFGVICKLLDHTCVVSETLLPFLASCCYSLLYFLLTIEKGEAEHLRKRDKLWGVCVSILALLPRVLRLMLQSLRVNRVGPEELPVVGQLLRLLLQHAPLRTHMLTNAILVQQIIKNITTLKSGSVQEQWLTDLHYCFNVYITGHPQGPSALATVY
T3 sequence (Q8IZL8 whole entry, chain 2 of 4): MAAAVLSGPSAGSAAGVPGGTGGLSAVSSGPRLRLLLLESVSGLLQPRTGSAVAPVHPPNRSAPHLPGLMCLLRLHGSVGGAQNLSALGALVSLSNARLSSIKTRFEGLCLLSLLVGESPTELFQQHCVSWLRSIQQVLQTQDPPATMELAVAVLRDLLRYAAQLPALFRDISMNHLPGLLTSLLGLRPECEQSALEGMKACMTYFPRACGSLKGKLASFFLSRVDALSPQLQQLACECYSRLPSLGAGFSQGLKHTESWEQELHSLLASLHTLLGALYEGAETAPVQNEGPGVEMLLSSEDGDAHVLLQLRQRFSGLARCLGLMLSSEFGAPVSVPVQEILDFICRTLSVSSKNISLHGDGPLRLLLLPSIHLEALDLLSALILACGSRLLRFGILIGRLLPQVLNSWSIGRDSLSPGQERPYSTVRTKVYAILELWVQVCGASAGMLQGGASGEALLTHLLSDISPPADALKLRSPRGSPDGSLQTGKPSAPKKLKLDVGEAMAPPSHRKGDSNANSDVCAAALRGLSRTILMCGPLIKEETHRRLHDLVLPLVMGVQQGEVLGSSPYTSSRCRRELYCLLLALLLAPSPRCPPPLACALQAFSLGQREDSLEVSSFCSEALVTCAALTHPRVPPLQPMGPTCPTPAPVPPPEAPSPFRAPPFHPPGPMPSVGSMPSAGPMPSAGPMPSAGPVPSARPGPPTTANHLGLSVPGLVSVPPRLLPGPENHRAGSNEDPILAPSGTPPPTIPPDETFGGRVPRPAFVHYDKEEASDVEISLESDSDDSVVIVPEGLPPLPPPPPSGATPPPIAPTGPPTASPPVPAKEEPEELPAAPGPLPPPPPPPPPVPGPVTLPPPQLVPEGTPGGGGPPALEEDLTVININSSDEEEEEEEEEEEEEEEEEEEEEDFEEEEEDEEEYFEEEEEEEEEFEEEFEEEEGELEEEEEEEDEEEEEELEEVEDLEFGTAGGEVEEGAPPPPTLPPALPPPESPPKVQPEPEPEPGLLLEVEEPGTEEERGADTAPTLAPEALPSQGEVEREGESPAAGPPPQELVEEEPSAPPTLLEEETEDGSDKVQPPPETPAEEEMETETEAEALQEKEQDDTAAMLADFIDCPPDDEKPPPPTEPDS
T3 sequence (Q9BV38 whole entry, chain 3 of 4): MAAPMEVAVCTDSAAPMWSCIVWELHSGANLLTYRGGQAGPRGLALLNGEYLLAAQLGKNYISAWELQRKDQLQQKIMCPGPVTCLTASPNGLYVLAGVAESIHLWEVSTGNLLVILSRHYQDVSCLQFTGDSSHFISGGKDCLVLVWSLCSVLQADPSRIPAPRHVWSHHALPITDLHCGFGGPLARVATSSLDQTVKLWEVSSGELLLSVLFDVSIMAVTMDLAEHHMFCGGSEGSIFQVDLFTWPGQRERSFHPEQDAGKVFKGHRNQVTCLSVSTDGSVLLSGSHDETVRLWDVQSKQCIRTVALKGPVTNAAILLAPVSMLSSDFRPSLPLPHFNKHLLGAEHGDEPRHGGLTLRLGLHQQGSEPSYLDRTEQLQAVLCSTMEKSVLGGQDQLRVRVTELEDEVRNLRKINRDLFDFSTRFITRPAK
T3 sequence (Q9H4L4 whole entry, chain 4 of 4): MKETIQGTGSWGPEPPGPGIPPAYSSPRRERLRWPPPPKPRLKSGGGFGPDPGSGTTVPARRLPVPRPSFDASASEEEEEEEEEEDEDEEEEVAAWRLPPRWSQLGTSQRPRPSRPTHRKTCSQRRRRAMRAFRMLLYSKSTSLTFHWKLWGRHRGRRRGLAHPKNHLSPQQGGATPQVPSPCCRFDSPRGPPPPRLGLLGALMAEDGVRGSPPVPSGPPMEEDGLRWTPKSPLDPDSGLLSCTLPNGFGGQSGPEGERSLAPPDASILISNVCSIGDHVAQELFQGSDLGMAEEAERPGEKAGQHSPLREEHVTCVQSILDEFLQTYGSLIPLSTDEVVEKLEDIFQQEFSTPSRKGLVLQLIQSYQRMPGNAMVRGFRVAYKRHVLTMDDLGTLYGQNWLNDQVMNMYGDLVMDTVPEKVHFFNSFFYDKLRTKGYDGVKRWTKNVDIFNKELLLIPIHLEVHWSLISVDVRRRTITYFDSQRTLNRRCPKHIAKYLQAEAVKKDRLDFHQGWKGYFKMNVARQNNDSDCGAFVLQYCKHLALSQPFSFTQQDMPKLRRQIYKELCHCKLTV

T1 sequence (Q9H4L4 311-574 C532S): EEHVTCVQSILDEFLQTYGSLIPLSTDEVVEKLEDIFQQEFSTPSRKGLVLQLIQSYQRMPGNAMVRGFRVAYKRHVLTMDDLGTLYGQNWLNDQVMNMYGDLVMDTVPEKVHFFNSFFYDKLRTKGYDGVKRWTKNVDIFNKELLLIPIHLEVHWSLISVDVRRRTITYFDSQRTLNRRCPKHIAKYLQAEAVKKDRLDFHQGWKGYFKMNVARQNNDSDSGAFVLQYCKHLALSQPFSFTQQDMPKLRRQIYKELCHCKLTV
T2 sequence (Q9H4L4 302-574): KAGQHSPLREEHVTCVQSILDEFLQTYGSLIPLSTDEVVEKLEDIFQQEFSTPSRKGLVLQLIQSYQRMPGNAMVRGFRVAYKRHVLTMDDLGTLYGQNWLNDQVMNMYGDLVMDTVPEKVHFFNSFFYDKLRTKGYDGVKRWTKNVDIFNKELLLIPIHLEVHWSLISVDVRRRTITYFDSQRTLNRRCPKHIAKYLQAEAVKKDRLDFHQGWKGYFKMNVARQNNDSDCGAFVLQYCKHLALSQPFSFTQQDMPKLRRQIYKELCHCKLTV

Molecule: MBP-PELP1^887–966 (from UniProt Q8IZL8 887-966) (domain or fragment)
stoichiometry N (copies per histone octamer) [1]: 2

Molecule: MBP-PELP1^800–1130 (from UniProt Q8IZL8 800-1130) (domain or fragment)
stoichiometry N (copies per histone octamer) [1]: 2

B1: sPELP1 peptide (PELP1 residues Ala764-Glu781) (peptide, UniProt Q8IZL8 764-781, looked up)
peptide: AFVHYDKEEASDVEISLE
notes: also called short (s) PELP1; PELP1^SLiM peptide (764 to 781aa); source: synthetic peptide (GenScript)
binding result [2]: binds

The remaining lines, values ahead:

binding result [3]: binds
B2: 6×-HIS-MBP-PELP1 761 to 796aa (SENP3 binding motif peptide) (domain or fragment, human, UniProt Q8IZL8 761-796, looked up)
chain: PRPAFVHYDKEEASDVEISLESDSDDSVVIVPEGLP
notes: human PELP1 IDR, residues 761 to 796 with the SLiM; legends and the purification paragraph print 761 to 796aa; also called MBP-PELP1^SLiM; PELP1^SLiM-containing peptide 761 to 796aa; source: E. coli, purified (His60 Ni resin, S200 gel filtration); not shown: MBP, N-terminal, kept

binding result [4]: binds
B3: recombinant human noncanonical PRC1.4 complex (RING1B-BMI1-RYBP) (complex)
chain 1: MSQAVQTNGTQPLSKTWELSLYELQRTPQEAITDGLEIVVSPRSLHSELMCPICLDMLKNTMTTKECLHRFCADCIITALRSGNKECPTCRKKLVSKRSLRPDPNFDALISKIYPSRDEYEAHQERVLARINKHNNQQALSHSIEEGLKIQAMNRLQRGKKQQIENGSGAEDNGDSSHCSNASTHSNQEAGPSNKRTKTSDDSGLELDNNNAAMAIDPVMDGASEIELVFRPHPTLMEKDDSAQTRYIKTSGNATVDHLSKYLAVRLALEELRSKGESNQMNLDTASEKQYTIYIATASGQFTVLNGSFSLELVSEKYWKVNKPMELYYAPTKEHK
chain 2: MHRTTRIKITELNPHLMCVLCGGYFIDATTIIECLHSFCKTCIVRYLETSKYCPICDVQVHKTRPLLNIRSDKTLQDIVYKLVPGLFKNEMKRRRDFYAAHPSADAANGSNEDRGEVADEDKRIITDDEIISLSIEFFDQNRLDRKVNKDKEKSKEEVNDKRYLRCPAAMTVMHLRKFLRSKMDIPNTFQIDVMYEEEPLKDYYTLMDIAYIYTWRRNGPLPLKYRVRPTCKRMKISHQRDGLTNAGELESDSGSDKANSPAGGIPSTSSCLPSPSTPVQSPHPQFPHISSTMNGTSNSPSGNHQSSFANRPRKSSVNGSSATSSG
chain 3: MTMGDKKSPTRPKRQAKPAADEGFWDCSVCTFRNSAEAFKCSICDVRKGTSTRKPRINSQLVAQQVAQQYATPPPPKKEKKEKVEKQDKEKPEKDKEISPSVTKKNTNKKTKPKSDILKDPPSEANSIQSANATTKTSETNHTSRPRLKNVDRSTAQQLAVTVGNVTVIITDFKEKTRSSSTSSSTVTSSAGSEQQNQSSSGSESTDKGSSRSSTPKGDMSAVNDESF
notes: human RING1B, full length; human BMI1, full length; human RYBP, full length; also called ncPRC1.4; not shown: SUMO-10xHis, N-terminal, cleaved; copies: + +
